Reference: patent US20100216721A1

Tests used:
[1] = molecular target: HIV-1 92UG037-08 gp120 (HIV-1 strain 92UG037-08); test: SPR (Biacore 3000); peptide over immobilized gp120
[2] = molecular target: HIV-1 SF162 gp120 (HIV-1 strain SF162), P19550; test: SPR (Biacore 3000); peptide over immobilized gp120

| Binder | Kd [1] | Kd [2] |
| --- | --- | --- |
| RINNIPWSEAMM (modifications not checked) [HNG-105] | 1.84 µM | 0.0705 µM |
| RINNIPWSEAMM (modifications not checked) [HNG-156] | 0.0163 µM | 0.009 µM |
